± gives the standard deviation of the averaged measurements.

Data on 79 sequences can be found in the supplement of paper PMC10126150.
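Further: ATP exposure 15 min at 22 °C before imaging.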

The subject of the data set is ATP. Put plainly: switch fluorescence ratio, 500 uM ATP over buffer (Cy3 cluster intensity, sum of 5 cycles each) (fold (ratio)); higher = stronger signal-on switching upon ATP binding; sequences stand for … in TCGTCGGCAGCGTCAGATGTGTATAAGAGACAGTTTTTTTTTTTTTTTTTTTTTTTTT…TC. To be noted: aptamer strand: ATP DNA aptamer (quencher-CACCTGGGGGAGTATTGCGGAGGAAGG + anchor), 100 nM annealed; ATP concentration: 500 uM. The gist of the method: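 Values give the fluorescence ratio for each switch-domain sequence, averaged from per-cluster ratios of summed target-cycle to summed buffer-cycle Cy3 intensity. The Cy3-labelled switching-strand clusters sat on a modified Illumina MiSeq flow-cell, were annealed to 100 nM quencher-labelled ATP aptamer, and were imaged in selection buffer, then after 15 min with 500 uM ATP at 22 °C. Five cycles ran with NaOH stripping and re-annealing between them, and clusters outside 100-1000 RFU were excluded.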
Consider GTTCAAGGGC, for which the switch fluorescence ratio was determined as 0.996 ± 0.032.
The same measure for TGGCAATTAG: 1.1 ± 0.074; for TTAAGAGGGT: 0.997 ± 0.015; for GGTGAGGGCA: 0.99 ± 0.015.
Turning to GATTATGAGT, the switch fluorescence ratio was determined as 1.02 ± 0.018.
In the case of CCATCTATCG, the switch fluorescence ratio is 1.03 ± 0.026.
The value for CAGGAGACGC was 1.05 ± 0.036; that for TTTCTGGGTT was 1.01 ± 0.023.
In the case of TGGGTTTCTT, the switch fluorescence ratio is 1.016 ± 0.0055.
CATCATGTTT: the switch fluorescence ratio turned out to be 0.984 ± 0.015.
For the sequence TTAGTTTTGT, the switch fluorescence ratio was found to be 0.999 ± 0.027.
Turning to TACTACTTAT, the switch fluorescence ratio is 1.04 ± 0.053.
Consider TGGGGATTGG, for which the switch fluorescence ratio was determined as 1.17 ± 0.49.
The value for CGGGGAATCA was 0.991 ± 0.038; that for GGGAAGTATG was 1 ± 0.057; that for ACATCAATTC was 1.1 ± 0.014.
For the sequence AGGGGAGTTA, the switch fluorescence ratio worked out at 1.02 ± 0.051.
Take CCATAACTTA: the switch fluorescence ratio is 0.9782 ± 0.0033.
The same measure for TTGGGGTTCT: 1.04 ± 0.033; for CCTATGGTAG: 1.014 ± 0.0099.
The value for TGTTGTTGAT was 0.985 ± 0.036; that for ATTGGGTGTG was 0.987 ± 0.027.
On to AGAGTGGCAG, for which the switch fluorescence ratio was 1.01 ± 0.021.
The value for AACTATTTGT was 0.978 ± 0.015.
Regarding GCTAGAAGGT, the switch fluorescence ratio is 1.01 ± 0.03.
As to AAGAGGCATG, the switch fluorescence ratio stood at 0.971 ± 0.07.
The same measure for GCAGCCGAGT: 1.013 ± 0.0098; for CGGACTGGGC: 0.959 ± 0.051; for TATTTAGTTG: 1 ± 0.024.
The value for TGAGTAACGG was 1.02 ± 0.04.
The value for GGAGGACTTT was 0.9826 ± 0.0028; that for TTTTTGCCGG was 1.01 ± 0.014; that for GATTGTCCGT was 0.981 ± 0.031.
On to GGTTTCGGCG, for which the switch fluorescence ratio came to 0.966 ± 0.04.
The value for GTTATATTG was 1.01 ± 0.031; that for CTTGCTTGAG was 1.003 ± 0.0007.
For ACGAGTTCCC, the switch fluorescence ratio came out at 1.01 ± 0.043.
As for ACTGGCAGTT, the switch fluorescence ratio came to 1.01 ± 0.037.
Consider CTATTTGAGG, for which the switch fluorescence ratio is 0.9825 ± 0.004.
The same measure for CCATTGACGG: 1.04 ± 0.02; for GAATTTCGAT: 0.976 ± 0.011; for AAATCGAGGT: 0.9917 ± 0.0052.
Regarding GACATAAGTT, the switch fluorescence ratio amounted to 1 ± 0.044.
Regarding CCATTTCTTG, the switch fluorescence ratio was 0.9906 ± 0.0095.
Consider TTAATCGTTA, for which the switch fluorescence ratio was 1.01 ± 0.011.
The value for AGTCGGTTAA was 1.02 ± 0.046; that for AAAATAAATG was 1.01 ± 0.017.
Consider GGGTACGTGG, for which the switch fluorescence ratio is 1.005 ± 0.009.
The value for CAGGTTGTGC was 0.98 ± 0.055; that for CGTGACAGGG was 1.04 ± 0.058.
The value for CTGGGCGGTG was 0.9982 ± 0.0052.
TCAAATCGGG: the switch fluorescence ratio came out at 0.999 ± 0.014.
The value for ATCAATGTGC was 0.962 ± 0.088; that for TCTGGGGGTA was 0.982 ± 0.022; that for ACGGTCTGGC was 1.02 ± 0.035.
CGTTTTTAAG: the switch fluorescence ratio came to 0.982 ± 0.0052.
The same measure for TACACTTGTA: 1.03 ± 0.057.
The same measure for AGTCCTTTT: 0.9882 ± 0.0095.
TTGTAGATGC: the switch fluorescence ratio came out at 1.03 ± 0.071.
TCGTGAACGT: the switch fluorescence ratio was found to be 0.978 ± 0.011.
The same measure for TGCGGGGTTA: 0.986 ± 0.024; for AGGTTAGAAG: 1.006 ± 0.0014; for ATTGAGATGC: 0.938 ± 0.014.
In the case of TAAAGAAAAG, the switch fluorescence ratio came out at 0.988 ± 0.011.
TCCCGGTTTG: the switch fluorescence ratio was found to be 1.009 ± 0.01.
Take TTTTTCAGAT: the switch fluorescence ratio is 1.03 ± 0.055.
As for AATCGGTTTG, the switch fluorescence ratio is 0.987 ± 0.029.
Turning to GGGCTATTAG, the switch fluorescence ratio turned out to be 0.98 ± 0.013.
Regarding GGTTTTCTCG, the switch fluorescence ratio turned out to be 1.03 ± 0.023.
The value for ATATTATTGT was 0.9911 ± 0.0085; that for AACGGGCCCG was 1 ± 0.04.
ATTCGTTTCT: the switch fluorescence ratio was 0.97 ± 0.013.
As to CCAGACAGC, the switch fluorescence ratio is 1.01 ± 0.052.
In the case of TTATCCGGGT, the switch fluorescence ratio amounted to 0.9661 ± 0.0088.
As for TCTGGGTGAT, the switch fluorescence ratio was found to be 1.03 ± 0.015.
Turning to GGCGTTCTTG, the switch fluorescence ratio came out at 0.962 ± 0.015.
In the case of AAGGTATTTT, the switch fluorescence ratio is 1.01 ± 0.037.
Regarding GCTTTAGGAT, the switch fluorescence ratio was 1.01 ± 0.04.
The value for GACTTTTCGA was 1 ± 0.04.
